Experimental findings from patent US20120214741A1 (BEN GURION UNIVERSITY OF THE NEGEV RESEARCH AND DEVELOPMENT …, published 2012) are described below.

Experiment [1] addresses T1, Rat brain HK-I (hexokinase-I), purified (rat, UniProt P05708 1-918).
T1 construct: Purified from rat brain; Used in the planar lipid bilayer and isolated-mitochondria assays
T1 sequence (looked up): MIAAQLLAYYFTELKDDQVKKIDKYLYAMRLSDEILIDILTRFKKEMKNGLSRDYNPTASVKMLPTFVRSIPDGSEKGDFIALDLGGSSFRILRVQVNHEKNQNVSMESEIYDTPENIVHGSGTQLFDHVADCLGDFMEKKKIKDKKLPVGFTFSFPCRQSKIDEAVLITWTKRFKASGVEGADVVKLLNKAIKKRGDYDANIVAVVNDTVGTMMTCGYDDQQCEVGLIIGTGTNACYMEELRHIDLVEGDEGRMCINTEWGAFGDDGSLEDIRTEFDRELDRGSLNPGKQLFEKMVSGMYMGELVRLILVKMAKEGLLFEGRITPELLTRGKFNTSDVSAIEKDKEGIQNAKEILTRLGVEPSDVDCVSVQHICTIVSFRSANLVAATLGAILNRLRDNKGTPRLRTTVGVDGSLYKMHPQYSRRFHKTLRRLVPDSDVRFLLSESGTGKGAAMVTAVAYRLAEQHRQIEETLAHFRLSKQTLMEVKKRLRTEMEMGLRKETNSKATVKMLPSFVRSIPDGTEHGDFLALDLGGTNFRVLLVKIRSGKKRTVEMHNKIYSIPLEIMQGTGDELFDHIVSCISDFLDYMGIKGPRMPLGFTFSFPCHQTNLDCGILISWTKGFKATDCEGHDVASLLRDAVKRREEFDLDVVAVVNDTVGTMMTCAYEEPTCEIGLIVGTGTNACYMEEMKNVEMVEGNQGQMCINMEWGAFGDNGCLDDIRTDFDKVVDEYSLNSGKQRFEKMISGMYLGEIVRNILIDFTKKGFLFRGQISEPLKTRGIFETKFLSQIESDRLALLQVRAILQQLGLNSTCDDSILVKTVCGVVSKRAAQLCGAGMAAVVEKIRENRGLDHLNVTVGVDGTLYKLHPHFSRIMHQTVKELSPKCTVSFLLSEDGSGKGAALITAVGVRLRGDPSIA
Kind of experiment: purified proteins, VDAC1 reconstituted into a planar lipid bilayer, channel recording. The method, then: Only PLBs with a resistance greater than 100 GΩ were used. Purified VDAC (about 1 ng) was added to the chamber defined as the cis side. […] Sigma Plot 2000 scientific software was used for data analyses. Experiments were performed at 23-25° C.

In experiment [2] the target is T1, Rat brain HK-I (hexokinase-I), purified. Kind of experiment: detachment of HK-I from rat brain mitochondria by the peptide (competition); HK-I activity in the supernatant.

B1: native mVDAC1 (mouse VDAC1), purified recombinant (other)
chain: MAVPPTYADLGKSARDVFTKGYGFGLIKLDLKTKSENGLEFTSSGSANTETTKVNGSLETKYRWTEYGLTFTEKWNTDNTLGTEITVEDQLARGLKLTFDSSFSPNTGKKNAKIKTGYKREHINLGCDVDFDIAGPSIRGALVLGYEGWLAGYQMNFETSKSRVTQSNFAVGYKTDEFQLHTNVNDGTEFGGSIYQKVNKKLETAVNLAWTAGNSNTRFGIAAKYQVDPDACFSAKVNNSSLIGLGYTQTLKPGIKLTLSALLDGKNVNAGGHKLGLGLEFQA
notes: Extracted from mitochondria of yeast expressing mVDAC1, purified and reconstituted into a planar lipid bilayer; also called native VDAC1
B1: in experiment [1], the binding result is recorded as “binds”.

B2: Peptide LP1 (VDAC1 loop 1 peptide) (peptide)
peptide: WTEYGLTFTEKWNTD
notes: No CPP or Trp zipper in these assays; also called LP1 peptide
Take B2: the binding result in experiment [2] was “binds”.
